Source: article PMC4585913, “Crystal structure of Streptococcus pneumoniae pneumolysin provides key insights into early steps of pore formation” (Scientific Reports, 2015)

Target: the molecule itself
Assay: crystal structure; PLY 10.5 mg/ml co-crystallised with 5 mM KAu(CN)2 in 10% PEG 8000, 10% glycerol, 10% ethylene glycol, 100 mM HEPES pH 7.5; space group P212121, one molecule in the asymmetric unit; linear oligomer formed by crystal packing; 2.9 A

B1: Pneumolysin (Hexahis-PLY, wild type) (natural protein, Streptococcus pneumoniae)
chain: ANKAVNDFILAMNYDKKKLLTHQGESIENRFIKEGNQLPDEFVVIERKKRSLSTNTSDISVTATNDSRLYPGALLVVDETLLENNPTLLAVDRAPMTYSIDLPGLASSDSFLQVEDPSNSSVRGAVNDLLAKWHQDYGQVNNVPARMQYEKITAHSMEQLKVKFGSDFEKTGNSLDIDFNSVHSGEKQIQIVNFKQIYYTVSVDAVKNPGDVFQDTVTVEDLKQRGISAERPLVYISSVAYGRQVYLKLETTSKSDEVEAAFEALIKGVKVAPQTEWKQILDNTEVKAVILGGDPSSGARVVTGKVDMVEDLIQEGSRFTADHPGLPISYTTSFLRDNVVATFQNSTDYVETKVTAYRNGDLLLDHSGAYVAQYYITWNELSYDHQGKEVLTPKAWDRNGQDLTAHFTTSIPLKGNVRNLSVKIRECTGLAWEWWRTVYEKTDLPLVRKRTISIWGTTLYPQVEDKVEN
notes: Pneumolysin (PLY) of Streptococcus pneumoniae, wild type, cloned into pQE-30; the domains described span residues 1 to 470; The crystals run on SDS-AGE were grown without gold; Three residues of the His tag/linker are visible at the N-terminus of the model; It is written here as m1; also called native PLY; not shown: His6, N-terminal, kept
B1: binds.
